In patent US20190359693A1 (Janssen / Centocor, published 2019) one finds VNA titer data, which are given here for 3 molecules.

Common to all, as to test: cell-based or functional assay
For experiment [1], the target named is HA of H3N? A/Env/MPJ193/09 (influenza A virus).
The target of experiment [2] is HA of H3N2 A/HK/1/68 (L331I, E443K) (influenza A virus).
Experiment [3] has as its target HA of H3N? A/Env/MPJ193/09 (influenza A virus). This is another data set of the same source.
Experiment [4] deals with HA of H3N2 A/HK/1/68 (N85, E443K) (influenza A virus).
The target in experiment [5] is HA of H3N2 A/HK/1/68 (R201G, L331I, E443K) (influenza A virus).
Experiment [6] has as its target HA of H3N2 A/HK/1/68 (E443K) (influenza A virus).
The target in experiment [7] is HA of H3N2 A/HK/1/68 (D375N, I395V) (influenza A virus).
Experiment [8] addresses HA of H3N2 A/HK/1/68 (G379R) (influenza A virus).
Experiment [9] deals with HA of H3N2 A/HK/1/68 (I395V) (influenza A virus).

Like-named read-outs stand apart in the source and are kept apart here. Bounds are passed on as bounds.

B1: SD1038 (VHH)
VHH: EVQLVESGGGLVQPGGSLRLSCAVSISIFDIYAMDWYRQAPGKQRDLVATSFRDGSTNYADSVKGRFTISRDNAKNTLYLQMNSLKPEDTAVYLCHVSLYRDPLGVAGGMGVYWGKGALVTVSS
notes: llama sdAb
For B1, in experiment [1], the VNA titer is 185 nM.

B2: SD1036 (VHH)
VHH: EVQLVESGGGLVQAGGSLKLSCAASGRTYAMGWFRQAPGKEREFVAHINALGTRTYYSDSVKGRFTISRDNAKNTEYLEMNNLKPEDTAVYYCTAQGQWRAAPVAVAAEYEFWGQGTQVTVSS
notes: llama sdAb
B2: the VNA titer was more than 1000 nM in [2]; 41 nM in [3]; more than 1000 nM in experiment [4]; more than 1000 nM in experiment [5]; more than 1000 nM in experiment [6]; more than 1000 nM in experiment [7]. For the same molecule, the VNA titer in [8] and in [9] was more than 1000 nM in each case.

B3: SD1046 (VHH)
VHH: EVQLVESGGGLVQAGDSLRISCAASGRTLSIYSMGWFRQAPGKEREFVATIGWNSGRTFYPDSLKGRFTISRDNARNTLYLQMNNLRPEDTAVYYCAAAKGPLRLSSQADYWGQGTQVTVSS
Turning to B3, the VNA titer is 202 nM in [2]; 202 nM in experiment [4]; 339 nM in [5]; 202 nM in experiment [6]; more than 1000 nM in experiment [7]; 571 nM in experiment [8]. In experiment [9], this molecule yielded a VNA titer of more than 1000 nM.
